Measurements taken from PMC5389741.

Target: PGK1 (UniProt P00558)
Assay: GST pull-down with purified proteins
Conditions: reference: WT GST-ARD1 with mTOR; sites S228

## ARD1 (from UniProt P41227) GST-ARD1 S228A with mTOR
  binding against the reference: stronger
